Experiment [1] has as its target T1, full-length human SIRPβ1 (NP_006056.2) on cells (human, UniProt O00241 30-398).
T1 construct: on U937 SIRPα KO cells and Expi-CHO cells; also called β1 WT
Put plainly: flow cytometry, U937 SIRPα KO cells. In short, it runs like this: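 Binding read as median fluorescence intensity after AF647 anti-human IgG staining and fixation. Antibodies were titrated onto donkey-IgG-blocked U937^{SIRPα KO} transfectants bearing SIRPβ1 or SIRPβL for 60 minutes on ice.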

Experiment [2] addresses T2, human SIRPαV1 extracellular domain + His-tag (NP_542970.1) (human, UniProt P78324 31-373).
T2 construct: also called hSIRPαV1; HuSIRPαV1
Put plainly: SPR, Ab captured, ECD-His analyte. In a few lines: (§1)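 In HBS-EP+ (1×), captured antibodies are exposed to a twofold concentration series of SIRP extracellular domain carrying a His tag, using 300 s contact at 30 μl/min and a 600 s dissociation window.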

The target of experiment [3] is T3, human SIRPαV2 extracellular domain + His-tag (CAA71403.1) (human, UniProt P78324 31-373).
T3 construct: also called hSIRPαV2; HuSIRPαV2
In words: SPR, Ab captured, ECD-His analyte. In a few lines:
as §1

For experiment [4], the target named is T4, human SIRPβ1 extracellular domain + His-tag (NP_006056.2) (human, UniProt O00241 30-371).
T4 construct: also called hSIRPβ1; HuSIRPβ1
Put plainly: SPR, Ab captured, ECD-His analyte. In a few lines: as §1

Experiment [5] addresses T5, human SIRPβL/SIRPβ1v3 extracellular domain + His-tag (NP_001129316.1) (human, UniProt Q5TFQ8 30-371).
T5 construct: also called hSIRPβ1v3; HuSIRPβ1v3
Put plainly: SPR, Ab captured, ECD-His analyte. In a few lines:
as §1

Experiment [6] addresses T6, human SIRPγ extracellular domain + His-tag (NP_061026.2) (human, UniProt Q9P1W8 29-360).
T6 construct: also called hSIRPγ; HuSIRPγ
Put plainly: SPR, Ab captured, ECD-His analyte. In short, it runs like this: as §1

Experiment [7] addresses T7, full-length human SIRPγ (NP_061026.2) on cells (human, UniProt Q9P1W8 29-387).
T7 construct: on CHO and Expi-CHO cells; endogenous on primary human CD3+ T cells; also called γ WT
In words: flow cytometry, primary human CD3+ T cells. In short, it runs like this:
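Binding was read as median fluorescence intensity on the CD3+ gate after titrated antibody was applied to donkey-IgG-blocked human PBMCs. Incubation was 60 min on ice, followed by staining with an AF647-labelled anti-human IgG F(ab′)₂ secondary and fixation before flow analysis.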

T6 sequence (Q9P1W8 29-360): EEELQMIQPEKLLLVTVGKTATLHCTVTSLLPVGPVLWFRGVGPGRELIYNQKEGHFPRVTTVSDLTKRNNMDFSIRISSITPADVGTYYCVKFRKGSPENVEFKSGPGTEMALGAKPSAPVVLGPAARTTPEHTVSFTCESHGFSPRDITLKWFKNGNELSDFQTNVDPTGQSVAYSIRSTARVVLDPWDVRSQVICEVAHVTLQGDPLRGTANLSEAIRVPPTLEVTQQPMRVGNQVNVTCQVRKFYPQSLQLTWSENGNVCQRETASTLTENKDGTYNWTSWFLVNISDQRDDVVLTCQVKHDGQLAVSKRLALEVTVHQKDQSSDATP
T5 sequence (Q5TFQ8 other isoform, or with tags, fused parts or gaps): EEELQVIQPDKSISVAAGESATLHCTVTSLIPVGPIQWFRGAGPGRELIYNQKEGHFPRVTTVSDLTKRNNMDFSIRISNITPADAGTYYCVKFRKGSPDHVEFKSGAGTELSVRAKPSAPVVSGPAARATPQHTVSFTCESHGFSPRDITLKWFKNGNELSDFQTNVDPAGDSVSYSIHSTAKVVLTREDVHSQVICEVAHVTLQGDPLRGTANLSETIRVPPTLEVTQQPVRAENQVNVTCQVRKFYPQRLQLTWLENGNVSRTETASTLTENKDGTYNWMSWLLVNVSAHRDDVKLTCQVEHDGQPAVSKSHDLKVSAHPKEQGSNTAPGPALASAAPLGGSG
T4 sequence (O00241 other isoform, or with tags, fused parts or gaps): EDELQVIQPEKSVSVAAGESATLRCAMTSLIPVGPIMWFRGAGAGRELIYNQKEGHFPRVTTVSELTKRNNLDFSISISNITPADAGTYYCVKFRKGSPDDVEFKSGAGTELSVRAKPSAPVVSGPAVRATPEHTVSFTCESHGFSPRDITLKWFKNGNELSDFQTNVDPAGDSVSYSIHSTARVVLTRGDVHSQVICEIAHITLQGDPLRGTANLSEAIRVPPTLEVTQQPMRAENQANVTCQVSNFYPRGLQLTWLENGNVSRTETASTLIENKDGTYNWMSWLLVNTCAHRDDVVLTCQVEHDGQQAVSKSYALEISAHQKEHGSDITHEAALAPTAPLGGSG
T2 sequence (P78324 other isoform, or with tags, fused parts or gaps): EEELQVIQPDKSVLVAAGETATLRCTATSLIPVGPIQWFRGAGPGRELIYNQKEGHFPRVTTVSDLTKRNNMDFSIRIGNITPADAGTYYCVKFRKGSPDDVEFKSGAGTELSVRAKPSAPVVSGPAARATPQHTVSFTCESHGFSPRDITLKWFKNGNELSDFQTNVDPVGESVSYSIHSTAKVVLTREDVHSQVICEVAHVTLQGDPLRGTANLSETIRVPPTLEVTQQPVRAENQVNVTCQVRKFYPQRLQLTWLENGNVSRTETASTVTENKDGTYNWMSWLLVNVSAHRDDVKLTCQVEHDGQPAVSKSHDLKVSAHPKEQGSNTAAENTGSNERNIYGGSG
T1 sequence (O00241 30-398): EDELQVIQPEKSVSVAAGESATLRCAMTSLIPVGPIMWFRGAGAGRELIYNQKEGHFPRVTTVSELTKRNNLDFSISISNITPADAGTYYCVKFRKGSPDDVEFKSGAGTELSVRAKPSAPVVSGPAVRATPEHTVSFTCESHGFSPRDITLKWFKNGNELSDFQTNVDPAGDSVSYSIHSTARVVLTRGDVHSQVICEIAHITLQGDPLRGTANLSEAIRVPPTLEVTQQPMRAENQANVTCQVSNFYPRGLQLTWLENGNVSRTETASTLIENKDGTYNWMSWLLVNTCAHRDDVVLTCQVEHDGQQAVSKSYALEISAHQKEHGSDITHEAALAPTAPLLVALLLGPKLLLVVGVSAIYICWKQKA
T3 sequence (P78324 other isoform, or with tags, fused parts or gaps): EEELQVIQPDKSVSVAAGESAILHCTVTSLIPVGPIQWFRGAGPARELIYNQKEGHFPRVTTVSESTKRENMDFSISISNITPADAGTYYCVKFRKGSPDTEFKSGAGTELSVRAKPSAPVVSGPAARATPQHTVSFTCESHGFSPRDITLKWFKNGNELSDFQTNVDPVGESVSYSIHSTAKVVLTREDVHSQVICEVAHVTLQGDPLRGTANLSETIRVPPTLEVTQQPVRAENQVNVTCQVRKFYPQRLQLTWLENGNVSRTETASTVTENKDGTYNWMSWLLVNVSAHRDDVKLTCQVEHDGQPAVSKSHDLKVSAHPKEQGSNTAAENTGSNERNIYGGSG
T7 sequence (Q9P1W8 29-387): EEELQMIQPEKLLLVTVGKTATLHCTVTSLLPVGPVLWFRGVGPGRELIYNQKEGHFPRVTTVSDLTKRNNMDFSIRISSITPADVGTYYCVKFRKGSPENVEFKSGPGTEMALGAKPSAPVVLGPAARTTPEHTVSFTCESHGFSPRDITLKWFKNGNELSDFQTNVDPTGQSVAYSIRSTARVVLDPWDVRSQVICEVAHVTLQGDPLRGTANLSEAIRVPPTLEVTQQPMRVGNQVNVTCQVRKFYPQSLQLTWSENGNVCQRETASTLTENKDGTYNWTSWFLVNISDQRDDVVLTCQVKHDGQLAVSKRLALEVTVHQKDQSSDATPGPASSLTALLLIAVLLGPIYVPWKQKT

B1: Antibody E22 (antibody, human IgG1, kappa, L234A L235A, V domains shown)
VH: QVQLQESGPGLVKPSETLSLTCTVSGGSIRDYYWSWIRQPPGKGLEWIGFIYYNGRTFYQSSLKSRVTISLDTSKNQFSLKMTSVTAADTAVYYCARVRAYSGIGLDGTDVWGQGTTVTVSS
VL: DIVMTQSPLSLPVTPGEPASISCRSSQSLLYSTGYTYLDWYLQRPGQSPQLLIYGGSSRASGVPDRFSGSGSGTDFTLKISRVEAEDVGVFYCGQALQTPLTFGQGTKVEIKR
As for B1, the binding result in experiment [1] was “no binding”; in experiment [4] it was “no binding (tested: 1000 nM)”; in experiment [6], “no binding (tested: 1000 nM)”; in experiment [7] it was “no binding”. Moreover, the Kd in experiment [2] is 1.57 nM; in experiment [3], 1.47 nM; in experiment [5], 3.19 nM.
